From patent publication CN114591436A (BIOLOGICAL ISLAND LABORATORY; UNIV SCIENCE AND TECHNOLOGY …, dated 2022)

B1: 单抗PGI_2F1 (VHH)
VHH: QVQLVESGGGLVQTGDSLKLSCLASGRTFSSRAMGWFRQAPGKEREFVAAISTSGVLKYYAPSVKGRFTISRDNAKNTMYLEMNSPEPEDTAVYYCAANGPPFGAYWWPTAREYDAWGQGTQVTVSS
B2: 单抗PGI_1H10 (VHH)
VHH: QVQLVQSGGGLVQAGGSLRLSCVVSGFNFSSFDRYTMSWVRQIPGKGLEWVSAINGGGIKTAYADSVKGRFTISRDNAKNTVYLQMNDLKPADTAVYYCTFTRWLVRGDYWGQGTQVTVSS
B3: 单抗PGI_1G9 (VHH)
VHH: QVQLVQSGGGSAHLGGSLRLSCAASGFIFSDYYMAWVRQAPGKEREWVSEINTSGRTYYADSVKGRFTISRDNAKNTLYLQMDSLKPEDTAVYYCYVHRSSIFTNREYWGQGTQVTVSS

Target: T1, 胃蛋白酶原I (Pepsinogen I) (Homo sapiens (Human), UniProt P0DJD7 63-388, limits assumed)
T1 construct: also called PGI; PG I
T1 sequence (P0DJD7 63-388 limits assumed): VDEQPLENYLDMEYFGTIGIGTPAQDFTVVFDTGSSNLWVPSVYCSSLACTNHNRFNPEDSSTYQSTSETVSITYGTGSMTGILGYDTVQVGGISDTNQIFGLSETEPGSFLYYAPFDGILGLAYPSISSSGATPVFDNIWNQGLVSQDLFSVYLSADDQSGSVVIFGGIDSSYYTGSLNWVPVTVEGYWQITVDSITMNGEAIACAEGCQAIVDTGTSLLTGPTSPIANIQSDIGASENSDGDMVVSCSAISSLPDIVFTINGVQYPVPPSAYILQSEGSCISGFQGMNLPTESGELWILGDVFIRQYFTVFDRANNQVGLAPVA
Assay: ELISA, VHH-pIII in bacterial culture supernatant incubated with PGI antigen; kd derived from binding strength

Binder | Kd
B1 | 404 nM
B2 | 123 nM
B3 | 1030 nM
